Assay: yeast display, Sf9 membrane polyspecificity reagent, FACS + sequencing; frameworks hold sequencing errors
Outline: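 Galactose-induced (36–48 hours) yeast carrying a synthetic nanobody display library were exposed to 10% biotinylated, detergent-solubilized Sf9 membrane reagent at 4 °C for 1 hour. FACS followed streptavidin microbead enrichment, using low and high (top ~1%) gates for expression (anti-HA) and reagent binding (streptavidin). Colony PCR, MiSeq 2 × 250 sequencing and CDR-length filtering followed. Labels for polyreactivity reflect the gate of origin.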

Sequence	polyreactivity (PSR sort gate)
QVQLVESGGGLVQAGGSLRLSCAASGRILSYYAMGWYRQAPGKERELVAVIRRGASTYADSVKGRFTISRDNAKNTVYLQMNSLKPEDTAVYYCNADRVVGLSATKYGYWGQGTQVTVSS	low polyreactivity
QVQLVESGGGLVQAGGSLRLSCAASGPTFRANAMGWYRQAPGKEREMVAAISQRGGNTYYADSVKGRFTISRDKAKNTVYLQMNSLKPEDTAVYYCSADITTYRRGRYEYEYWGQGTQVTVSS	high polyreactivity
QVQLVESGGGLVQAGGSLRLSCAASGIIFWKYAMGWYRQAPGKERELVAAISSRGGSTYYADSVKGRLTISRDNAKNTVYLQMNSLKPEDTAVYYCAGEDWYYGFDYWRQGTQVTVSS	high polyreactivity
QVQLVESGGGLVQAGGSLRLSCAASGITFAKYAMGWYRQAPGKESELVAAISSSGGRTYYADSVKGRFTISRDNAKNTVYLQMNSLKPEDTAVYYCAADFSGPFDYWGLGTQVTVSS	high polyreactivity
QVQLVESGGGLVQAGGRLRLSCAASGFIFSLYAMGWYRQAPGKERELVAGISESGGSTYYADSVKGRFTISRDNAKNTVYLQMNSLKPEDTAVYYCNADDTVYFIKAGDYWGQGTQVTVSS	high polyreactivity
QVQLVESGGGLVQAGGSLRLSCAASGRTFDDYAKGWYRQAPGKETEFVAAITRSGGGTHYADSVKGRFTISRDNAKNTVYLQMNSLKPEDTAVYYCAARAHGTYVRRRYDYWGQGTQVTVSS	high polyreactivity
QVQLVESGGGLVQAGGSLRLSCAASGFTFVKNAMGWYRQAPGKERELVAAITGSAGRTYYADSVKGRFTISRANAKNTVYLQMNSLKPEDTAVYYCNVYYGYFRSRYGYWGQGTQVTVSS	high polyreactivity
QVQLVESGGGLVQAGGSLRLSCAASGFIFWWYGMGWYRQSPGKEREFVAAITQSGSTYYADSVKGRFTISRDNAKNTVYLQMNSLKPEDTAVYYCAAVVGRRLYPRYDYWGQGTQVTVSS	high polyreactivity
QVQLVESGGGLVQAGGSLRISCAASGSIFASNAMGWYRQAPGKEREFVAAITWRTDRTYYADSVKGRFTISRDNAKNTVYLQMNSLKPEDTAVYYCAADTWFYRFYYWGQGTQVTVSS	high polyreactivity
QVQLVESGGGLVQAGGSLRLSCAASGRIFGGYAMGWYRQAPGKERELVAAITQSGGSTYYADSVKGRFTISRDNAKNTVYLQMNSLKPEDTAVYYCATYAWYIFGYWGQGTQVTVSS	low polyreactivity
QDQLVESGGGLVQAGGSLRLSRAASGLIFYSYAMGWYRQAPGKERELVAAISSGGGRTYYADSVKGRFTISRDNAKNTVDLQMNSLKPEDTAVYYCAAYGSAAQKYPYDRPYRYGYWGQGTQVTVSS	high polyreactivity
QVQLEESGGGLVQAGGSLRLSFAASGYTFDPYDMGWYRQAPGKERELVASISWSGGDTYYADSVKGRFTISRDNAKNTVYLQMNSLKPEDTAVYYCAADRYIPRSIIMDYWGQGNQVTVSS	low polyreactivity
QVQLVESGGGLVQAGGSLRLSCAASGRTFGSNAMGWYRQAPGKERELVAVISRRAGSTYADSVKGRFTISRDNAKNTVYLQMNSLKPEDTAVYYCATRWLYHQYYYWGQGTQVTVSS	high polyreactivity
QVQLVESGGGLVQAGGSLRLSCAASGRTFFRNAMGWYRQAPGKERELVAAISSSGGSTYADSVKGRFTISRDNAKNTVYLQMNSLKPEDTAVYYCAATVRGKRSTYDYWGQGTQVTVSS	high polyreactivity
QVQLVESGGGLVQAGGSLRLSCAASGGTFRLNAMGWYRQAPGKERELVATITRRGGSTYYADSVKGRFTISRDNAKNTVYLQMNSLKPEDTAVYYCAARDVYRGGLFDYWGQGTQVTVSS	high polyreactivity
QVQLVESGGGLVQAGGSLRLSCAASGFTFHYYGMGWYRQAPGKERELVAAINWSGSSTYYADSVKGRFTISRDNATNTVYLQMNSLKPEDSAVYYCAAEKRKLFQGVARYRYEYWGQGTQVTVSS	low polyreactivity
QVQLVESGGGLVQAGGSLRLSCAASGFIFAYYAMGWYRQAPGKERELVAAITNSGGSTYYADSVKGRFTISRDNAKNTVYLQMNSLKPEDTAVYYCNALHRIRYTPSSRYDYWGQGTQVTVSS	low polyreactivity
